Assay results from patent publication US6723838.

Target: purified H-ras GST fusion protein [GST: P08515]
Sequence (P08515 whole entry, looked up, the tested form may be a part): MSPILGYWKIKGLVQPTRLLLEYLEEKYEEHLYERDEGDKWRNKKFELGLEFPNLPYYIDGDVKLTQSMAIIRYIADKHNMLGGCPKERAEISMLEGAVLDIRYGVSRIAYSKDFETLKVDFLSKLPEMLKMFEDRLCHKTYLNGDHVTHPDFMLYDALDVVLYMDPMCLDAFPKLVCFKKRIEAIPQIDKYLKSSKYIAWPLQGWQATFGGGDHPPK

B1: GST fusion protein of the GAP domain (266-521) of SYNGAP (protein)
chain: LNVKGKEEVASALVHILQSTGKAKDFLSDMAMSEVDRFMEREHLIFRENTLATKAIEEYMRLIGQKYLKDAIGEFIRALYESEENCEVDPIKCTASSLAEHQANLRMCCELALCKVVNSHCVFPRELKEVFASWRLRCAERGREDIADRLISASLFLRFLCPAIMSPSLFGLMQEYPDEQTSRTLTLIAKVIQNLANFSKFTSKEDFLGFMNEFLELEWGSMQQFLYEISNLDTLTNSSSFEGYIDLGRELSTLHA
  GTPase activity of Ras ([gamma-32P]-GTP filter assay): addition of the GST fusion protein of the GAP domain of SYNGAP dramatically stimulated the GTPase activity of Ras
